T1: NifD-NifK proteins from K. oxytoca (expressed from MIT2.1 in E. coli JM109)
T1 chain 1: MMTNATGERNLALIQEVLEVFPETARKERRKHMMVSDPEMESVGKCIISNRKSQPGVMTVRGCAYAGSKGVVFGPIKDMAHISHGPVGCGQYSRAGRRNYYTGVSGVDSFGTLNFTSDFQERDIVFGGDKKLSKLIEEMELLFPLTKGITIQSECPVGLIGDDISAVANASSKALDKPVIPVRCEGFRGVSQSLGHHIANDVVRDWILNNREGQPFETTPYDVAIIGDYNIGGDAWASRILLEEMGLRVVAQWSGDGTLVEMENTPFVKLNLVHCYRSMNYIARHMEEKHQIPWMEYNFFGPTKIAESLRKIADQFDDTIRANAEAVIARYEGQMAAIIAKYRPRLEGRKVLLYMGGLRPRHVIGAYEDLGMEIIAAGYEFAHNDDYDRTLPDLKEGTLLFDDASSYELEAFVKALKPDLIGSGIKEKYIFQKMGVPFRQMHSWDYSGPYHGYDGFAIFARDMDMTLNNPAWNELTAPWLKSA
T1 chain 2: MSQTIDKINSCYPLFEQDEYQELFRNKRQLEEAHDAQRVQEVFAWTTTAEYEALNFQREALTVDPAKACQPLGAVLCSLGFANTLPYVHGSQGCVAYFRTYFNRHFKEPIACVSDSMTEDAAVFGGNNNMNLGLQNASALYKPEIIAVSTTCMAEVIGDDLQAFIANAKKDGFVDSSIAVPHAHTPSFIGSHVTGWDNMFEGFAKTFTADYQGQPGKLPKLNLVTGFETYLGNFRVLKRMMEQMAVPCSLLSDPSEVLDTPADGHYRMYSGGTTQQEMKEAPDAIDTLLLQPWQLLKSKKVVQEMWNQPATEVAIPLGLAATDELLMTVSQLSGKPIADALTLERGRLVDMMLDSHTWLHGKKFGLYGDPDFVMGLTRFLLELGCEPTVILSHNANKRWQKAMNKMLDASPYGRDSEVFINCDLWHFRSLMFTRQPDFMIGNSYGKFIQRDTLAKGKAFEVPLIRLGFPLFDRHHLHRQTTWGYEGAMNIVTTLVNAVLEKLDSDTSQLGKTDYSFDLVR

B1: Geobacter sp. NifH (Genbank Accession No. WP_015837436) (protein)
chain: MRQIAIYGKGGIGKSTTTQNTVAGLASIGKKVMIVGCDPKADSTRLILHAKAQSTVMDLVRELGTVEDLELEDVMKVGYGDVKCVESGGPEPGVGCAGRGVITAINFLEENGAYTPDLDFVFYDVLGDVVCGGFAMPIREGKAEEIYIVCSGEMMAMYAANNIAKGILKYATSGKVRLAGLICNARKTDKEYELIDALAKKLGTQMIHFVPRDNQVQRAELRRMTVIEYSPEHPQAQEYRTLAQKIADNKMLVVPTPLEMEELEDLLMEFGIMEAEDESIVGVAEAAAV
B2: M thermautotrophicus NifH (Genbank Accession No. AAB86034) (protein)
chain: MVRKIAIYGKGGIGKSTTQQNTAAAMSYFHGKNVMIHGCDPKADSTRLILGGKMQTTMMDTLRELGEVACTPDKVIETGFGGIKCVESGGPEPGVGCAGRGVITAITLMERHGVYEKDLDFVFFDVLGDVVCGGFAMPVRDGKAEEIYIVASGEMMALYAANNICKGMVKYARQSGVRLGGIICNSRNVDGEKELLEEFCERIGTQMIHFVPRDNIVQKAEFNKKSVIEFDPECNQSQEYRELARKIIENKDFVIPEPMTMDEMEELVVKYGVMD
B3: M. infernus NifH (Genbank Accession No. WP_013099459) (protein)
chain: MSFDEIAPNAKKVAIYGKGGIGKSTTTQNTAAALAYYYKLKGMIHGCDPKADSTRMILHGKPQETVMDVLREEGEEGVTLEKVRKVGFCGIYCVESGGPEPGVGCAGRGVITAVNLMKELGGYPDDLDFLFFDVLGDVVCGGFAMPLRDGLAKEIYIVSSGEMMALYAANNIAKGILKYAEQSGVRLGGIICNSRNVDGERELMEEFCDKLGTKLIHFIPRDNIVQKAEFNKMTVVEFAPDHPQALEYKKLGKKIMDNDELVIPTPLSMDELEKLVEKYGLYDK
B4: H. modesticaldum NifH (Genbank Accession No. WP_012282218) (protein)
chain: MRQIAIYGKGGIGKSTTTQNTVSALAEMGKKVMIVGCDPKADSTRLILHSKAQATVMDLAREKGTVEDLELSDVLLTGFADIRCAESGGPEPGVGCAGRGVITAINFLEENGAYTPDLDYVFYDVLGDVVCGGFAMPIRENKAQEIYIVTSGEMMAMYAANNIARGILKYASSGKVRLGGLICNSRKVDKEYELIDELATRLGTQMIHFLPRDNQVQRAELRRMTVIEYSPDHPQADEYRALAKKIDENKKLVIPTPLTMDELEDLLIQYGILEDEETAAAKLG
B5: M laminosus NifH (Genbank Accession No. Q47917) (protein)
chain: MTENIRQIAFYGKGGIGKSTTSQNTLAAMAEMGQRIMIVGCDPKADSTRLMLHSKAQTTVLHLAAERGAVEDLELEEVMLTGFRGVKCVESGGPEPGVGCAGRGIITAINFLEENGAYQDLDFVSYDVLGDVVCGGFAMPIREGKAQEIYIVTSGEMMAMYAANNIARGILKYAHSGGVRLGGLICNSRKVDREAELIENLAERLNTQMIHFVPRDNIVQHAELRRMTVNEYAPDSNQSQEYRALAKKIINNTKLTIPTPMEMDELEALLIEYGILDDDTKHADIIGKPAEASAK
B6: C. tepidum NifH (Genbank Accession No. WP_010933198) (protein)
chain: MRKVAIYGKGGIGKSTTTQNTVAGLAEAGKKVMVVGCDPKADSTRLLLGGLQQKTVLDTLREEGEEVELEDIIKEGYRNTRCTESGGPEPGVGCAGRGIITSVNLLEQLGAYDDEWELDYVFYDVLGDVVCGGFAMPIRDGKAEEIYIVCSGEMMAMYAANNICKGILKYADAGGVRLGGLICNSRKVDNEREMIEELARRLGTQMIHFVPRDNFVQRAEINRKTVIDFDPTHPQADEYRALAKKIDENKMFVIPKPLEIDELESLLIEFGIAN
B7: Carboxydothermus pertinax NifH (Genbank Accession No. WP_075859892) (protein)
chain: MTRKIAIYGKGGIGKSTTQQNTAAALAYFYGKKVLIHGCDPKADCTRLILGGKPQETVMDTMRELGEDAVTIDRVVKTGFCGIKCVESGGPEPGVGCAGRGVITAISLMEELGAYTPDLDFIFFDVLGDVVCGGFAMPVREGKAQEIYIVASGEMMALYAANNICRGMVKYAEQSGVRLGGIICNSRNVDGERELMEEFCSKIGTQMIHFIPRDNIVQKAEFNRQTVTQFDPNCNQAQEYRELARKIIENDMFVIPKPMTMDEMENLVIKYGLLE

Molecular target: T1, NifD-NifK proteins from K. oxytoca …

Protein	acetylene reduction assay (ethylene production) in E. coli JM109 with modified MIT2.1
B1	none of the JM109 strains carrying the modified MIT2.1 plasmids with the NifH variants reduced acetylene, instead showing the same background level of ethylene production as JM109 carrying the negative control plasmid pB-ori
B2	none of the JM109 strains carrying the modified MIT2.1 plasmids with the NifH variants reduced acetylene, instead showing the same background level of ethylene production as JM109 carrying the negative control plasmid pB-ori
B3	none of the JM109 strains carrying the modified MIT2.1 plasmids with the NifH variants reduced acetylene, instead showing the same background level of ethylene production as JM109 carrying the negative control plasmid pB-ori
B4	none of the JM109 strains carrying the modified MIT2.1 plasmids with the NifH variants reduced acetylene, instead showing the same background level of ethylene production as JM109 carrying the negative control plasmid pB-ori
B5	none of the JM109 strains carrying the modified MIT2.1 plasmids with the NifH variants reduced acetylene, instead showing the same background level of ethylene production as JM109 carrying the negative control plasmid pB-ori
B6	none of the JM109 strains carrying the modified MIT2.1 plasmids with the NifH variants reduced acetylene, instead showing the same background level of ethylene production as JM109 carrying the negative control plasmid pB-ori
B7	none of the JM109 strains carrying the modified MIT2.1 plasmids with the NifH variants reduced acetylene, instead showing the same background level of ethylene production as JM109 carrying the negative control plasmid pB-ori

Source: patent US20240117326
